The values that follow are results of earlier work, collected in publication PMC4407497.

One data set addresses IL-22R1 (Homo sapiens) (UniProt Q8N6P7).
A further data set has as its target IL-22BP (Homo sapiens) (UniProt Q969J5).
Chain of UniProt Q969J5 (Q969J5 22-263): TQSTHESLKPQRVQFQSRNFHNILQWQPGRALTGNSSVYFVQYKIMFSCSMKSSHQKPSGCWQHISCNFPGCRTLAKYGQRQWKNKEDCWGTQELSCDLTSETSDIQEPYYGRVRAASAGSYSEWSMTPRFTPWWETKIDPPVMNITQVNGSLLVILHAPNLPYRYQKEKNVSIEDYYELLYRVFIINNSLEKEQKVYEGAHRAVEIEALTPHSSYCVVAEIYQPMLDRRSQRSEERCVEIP

Chain of UniProt Q8N6P7 (Q8N6P7 16-228): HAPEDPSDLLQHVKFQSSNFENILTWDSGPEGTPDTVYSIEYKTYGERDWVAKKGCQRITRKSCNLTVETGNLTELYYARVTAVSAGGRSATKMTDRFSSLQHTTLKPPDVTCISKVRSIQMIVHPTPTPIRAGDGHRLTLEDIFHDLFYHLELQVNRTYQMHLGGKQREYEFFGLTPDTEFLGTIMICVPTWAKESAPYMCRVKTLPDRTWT

One may read the Kd as the free concentration of one partner at which half of the binding sites on the other are occupied at equilibrium, for simple one-to-one binding. Consider IL-22 (from UniProt Q9GZX6), for which the Kd with IL-22R1 (Homo sapiens) was 20 nM; with IL-22BP (Homo sapiens), 0.001 nM.
